In article PMC9157457 (The Journal of Biological Chemistry, 2022):

Target: the molecule itself
Assay: cryo-EM structure

B1: Photobacterium phosphoreum LuxC (acyl-CoA reductase) (enzyme)
chain: IKKIPMIIGGAERDTSEHEYRELTLNSYKVSIPIINQDDVEAIKSQSVENNLNINQIVNFLYTVGQKWKSENYSRRLTYIRDLVRFLGYSPEMAKLEANWISMILSSKSALYDIVETELGSRHIVDEWLPQGDCYVKAMPKGKSVHLLAGNVPLSGVTSIIRAILTKNECIIKTSSADPFTAIALASSFIDTDEHHPISRSMSVMYWSHNEDIAIPQQIMNCADVVVSWGGYDAIKWATEHTPVNVDILKFGPKKSIAIVDNPVDITASAIGVAHDICFYDQQACFSTQDIYYIGDNIDAFFDELVEQLNLYMDILPKGDQTFDEKASFSLIEKECQFAKYKVEKGDNQSWLLVKSPLGSFGNQPLARSAYIHHVSDISEITPYIENRITQTVTVTPWESSFKYRDVLASHGAERIVESGMNNIFRVGGAHDGMRPLQRLVKYISHERPYTYSTKDVAVKIEQTRYLEEDKFLVFVP
- stoichiometry N: 4
